Reference: patent US20130225488A1 (CADILA HEALTHCARE, published 2013)
Where no end group is shown, it is not given here. [ ]: non-standard residue; d: D form. αMePhe(2-F) = C[C@](N)(Cc1ccccc1F)C(=O)O; Ac3c = NC1(C(=O)O)CC1

Columns and labels:
[1] = target: Human glucagon receptor (human, UniProt P47871 26-477); assay: cell-based or functional assay
[2] = target: Human GLP-1 receptor (human, UniProt P43220 24-463); assay: cell-based or functional assay
Sequence of Human GLP-1 receptor (P43220 24-463): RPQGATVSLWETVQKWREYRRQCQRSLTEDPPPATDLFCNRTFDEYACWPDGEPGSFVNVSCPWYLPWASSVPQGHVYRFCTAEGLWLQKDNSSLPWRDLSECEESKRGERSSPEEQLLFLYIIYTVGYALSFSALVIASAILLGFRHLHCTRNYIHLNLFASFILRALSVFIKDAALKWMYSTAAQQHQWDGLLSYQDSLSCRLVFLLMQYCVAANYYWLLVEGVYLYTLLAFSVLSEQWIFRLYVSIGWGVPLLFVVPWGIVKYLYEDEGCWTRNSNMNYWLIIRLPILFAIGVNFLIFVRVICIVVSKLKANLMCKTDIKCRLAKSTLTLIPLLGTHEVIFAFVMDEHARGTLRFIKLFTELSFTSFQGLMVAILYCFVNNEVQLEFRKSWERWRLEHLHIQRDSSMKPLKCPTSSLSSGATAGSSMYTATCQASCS

Binder	cAMP production with saturated glucagon peptide; test compound 1 nM [1] [pmol/ml/µg prt]	cAMP production with saturated glucagon peptide; test compound 10 nM [1] [pmol/ml/µg prt]	cAMP production with saturated glucagon peptide; test compound 100 nM [1] [pmol/ml/µg prt]	cAMP production with saturated glucagon peptide; test compound 10 µM [1] [pmol/ml/µg prt]	cAMP production with saturated glucagon peptide; test compound '1 nM' [1] [pmol/ml/µg prt]	cAMP release, % activity with respect to control; test compound 1 nM [2] [%]	cAMP release, % activity with respect to control; test compound 10 nM [2] [%]	cAMP release, % activity with respect to control; test compound 100 nM [2] [%]	cAMP release, % activity with respect to control; test compound 1 µM [2] [%]	cAMP release, % activity with respect to control; test compound 10 µM [2] [%]
HAQGT[αMePhe(2-F)]TSD[Bip(OMe)][Bip(2Me)] [Seq. ID. No. 25: HAQGT-(α-Me-2F-Phe)-TSD-Bip(OMe)-Bip(2Me)]	18	16	12	6	8	38	77	85	94	97
HAQGTFTSD[Bip(OMe)][Bip(Pyr)] [Seq. ID. No. 10: HAQGTFTSD-Bip(OMe)-Bip(Pyr)]	15	12	8	2	4	–	–	–	–	–
HSQGTXTSDXX (α-Me-2F-Phe at 6; Bip(OMe) at 10; Bip(2Me) at 11) [Seq. ID. No. 21: HSQGT-(α-Me-2F-Phe)-TSD-Bip(OMe)-Bip(2Me)]	19	17	15	12	14	39	80	86	95	98
H[Ac3c]QGTFTSD[Bip(OMe)][Bip(2F)] [Seq. ID. No. 19: H-(ACP)-QGTFTSD-Bip(OMe)-Bip(2F)]	5	3	1	0	0	–	–	–	–	–
HSQGTXTSDXX (α-Me-2F-Phe at 6; Bip(OMe) at 10; Bip(2F) at 11) [Seq. ID. No. 23: HSQGT-(α-Me-2F-Phe)-TSD-Bip(OMe)-Bip(2F)]	4	2	2	0	0	46	85	90	99	99

Other lines, results leading:

cAMP production with saturated glucagon peptide; test compound 1 nM [1] [pmol/ml/µg prt]	cAMP production with saturated glucagon peptide; test compound 10 nM [1] [pmol/ml/µg prt]	cAMP production with saturated glucagon peptide; test compound 100 nM [1] [pmol/ml/µg prt]	cAMP production with saturated glucagon peptide; test compound 10 µM [1] [pmol/ml/µg prt]	cAMP production with saturated glucagon peptide; test compound '1 nM' [1] [pmol/ml/µg prt]	cAMP release, % activity with respect to control; test compound 1 nM [2] [%]	cAMP release, % activity with respect to control; test compound 10 nM [2] [%]	cAMP release, % activity with respect to control; test compound 100 nM [2] [%]	cAMP release, % activity with respect to control; test compound 1 µM [2] [%]	cAMP release, % activity with respect to control; test compound 10 µM [2] [%]	Binder
5	2	0	0	0	–	–	–	–	–	H[Ac3c]QGTFTSD[Bip(OMe)][Bip(2CF3)] (not fully specified) [Seq. ID. No. 20: H-(ACP)-QGTFTSD-Bip(OMe)-Bip(2CF3)]
15	12	8	2	4	–	–	–	–	–	HAQGT[αMePhe(2-F)]TSD[Bip(OMe)][Bip(Pyr)] [Seq. ID. No. 26: HAQGT-(α-Me-2F-Phe)-TSD-Bip(OMe)-Bip(Pyr)]
4	2	0	0	0	41	82	87	95	98	HSQGTXTSDXX (α-Me-2F-Phe at 6; Bip(OMe) at 10; Bip(2CF3) at 11) [Seq. ID. No. 24: HSQGT-(α-Me-2F-Phe)-TSD-Bip(OMe)-Bip(2CF3)]
21	19	18	16	18	–	–	–	–	–	HSQGTXTSDXX (α-Me-2F-Phe at 6; Bip(OMe) at 10; Bip(Pyr) at 11) [Seq. ID. No. 22: HSQGT-(α-Me-2F-Phe)-TSD-Bip(OMe)-Bip(Pyr)]
3	1	0	0	0	–	–	–	–	–	HXQGTXTSDXX (not fully specified; ACP at 2; α-Me-2F-Phe at 6; Bip(OMe) at 10; Bip(2CF3) at 11) [Seq. ID. No. 36: H-(ACP)-QGT-(α-Me-2F-Phe)-TSD-Bip(OMe)-Bip(2CF3)]
–	–	–	–	–	39	80	88	96	99	HSQGTFTSD[Bip(OMe)][Bip(Pyr)] (not fully specified (C-terminus); printed as HSQGTFTSD-Bip(OMe)-Bip(Pyr)) [Seq. ID. No. 6: HSQGTFTSD-Bip(OMe)-Bip(Pyr)]
5	3	0	0	0	–	–	–	–	–	HAQGTFTSD[Bip(OMe)][Bip(2CF3)] [Seq. ID. No. 12: HAQGTFTSD-Bip(OMe)-Bip(2CF3)]
